One may read the Kd as the constant that tells how readily two partners part at equilibrium.

The data set addresses T1, RepTrixie immunity repressor (Mycobacteriophage Trixie, UniProt G1JV33 1-192).
T1 sequence: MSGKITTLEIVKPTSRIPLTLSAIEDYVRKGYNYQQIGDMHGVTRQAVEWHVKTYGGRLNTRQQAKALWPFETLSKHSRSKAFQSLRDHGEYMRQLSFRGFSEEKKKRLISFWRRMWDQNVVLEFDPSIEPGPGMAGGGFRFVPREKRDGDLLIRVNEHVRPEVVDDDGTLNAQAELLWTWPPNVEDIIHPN
The experiment in a line: EMSA; EMSA on 8% polyacrylamide gel, serially diluted Rep with 5'-32P 30-bp dsDNA; binding buffer and temperature not given (ref. 54); protein storage buffer 50 mM Tris pH 8.0, 150 mM NaCl, 0.1 mM EDTA, 0.1 mM DTT, 50% glycerol. As to conditions: protein: recombinant; chain copies: 2; label: 5' 32P; blunt.

B1: RedRock stoperator 30-bp (dsDNA)
DNA 1: TAAGGCGAACTTGACATCCACCGGGTTGGG
DNA 2: CCCAACCCGGTGGATGTCAAGTTCGCCTTA
As for B1, the equilibrium dissociation constant (Kd) was around 6.48 nM.

B2: Trixie stoperator 30-bp (dsDNA)
DNA 1: TGAGCAGTACTTGACATTCACCAGGTTGGG
DNA 2: CCCAACCTGGTGAATGTCAAGTACTGCTCA
Take B2: the Kd was around 6.48 nM.

The record behind these values is publication PMC6550527, “Evolution of Superinfection Immunity in Cluster A Mycobacteriophages”.
